B1: antibody 440 (antibody, V domains shown)
VH: EVQLLESGGGLVQPGGSLRLSCAASGFTFSSYAMSWVRQAPGKGLEWVSAISGSGVNTYHADSVKGRFTISRDNSRNTLYLQMSSLTAEDTAAYYCAKDFEAASGAYYYYGMDVWGQGTTVTVSS
VL: SYELTQPPSVSVSPGQTARITCSGDALPDQYAYWYQQKPGQAPVVVIYKDRERPSGIPERFSGSNSGTTVTLTISGVQAEDEADYYCQSADSSATYVVFGGGTKLTVL
B2: antibody 468 (antibody, V domains shown)
VH: QVQLVESGGGVVQPGRSLRLSCAASGFTFSIYAMHWVRQAPGKGLEWVAVISYDGSNKYYADSVKGRFTISRDNSKNTLYLQMNSLRAEDTAVYYCAGSLPAGSYYYYYGMDVWGQGTTVTVSS
VL: SYELTQPPSVSVSPGQTARITCSGDALPKQYAYWYQQKPGQAPVLVIYKDSERPSGIPERFSGSSSGTTVTLTISGVQAEDEADYYCQSADNSGTYVLFGGGTKLTVL
B3: antibody 441 (antibody, V domains shown)
VH: EVQLVESGGGVVRPGGSLRLSCAASGFTFGDYGMSWVRQAPGKGLEWVSGINWNGGSTGYADSVKGRFTISRDNAKNSLYLQMNSLRAEDTALYYCASDLVRGVIGFDYWGQGTLVTVSS
VL: SYELTQPPSVSVSPGQTARITCSGDALPKQYAYWYQQKPGQAPVLVIYKDSERPSGIPERFSGSSSGTTVTLTISGVQAEDEADYYCQSADSSGITGVFGGGTKLTVL
B4: antibody 462 (antibody, V domains shown)
VH: QVQLVESGGGVVQPGRSLRLSCAASGFTFSSYGMHWVRQAPGKGLEWVAVIWYDGNNKYYADSVKGRFTISRDNSKNTLYLQMNSLRAEDTAVYYCAKDPTWFGELPSYYYYGMDVWGQGTTVTVSS
VL: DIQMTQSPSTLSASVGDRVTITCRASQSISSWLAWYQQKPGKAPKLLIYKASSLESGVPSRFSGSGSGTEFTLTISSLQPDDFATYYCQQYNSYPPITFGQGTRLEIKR
B5: antibody 455 (antibody, V domains shown)
VH: QVQLVQSGAEVKKPGSSVKVSCKASGGTFSSYAISWVRQAPGQGLEWMGRIIPILGIANYAQKFQGRVTITADKSTSTAYMELSSLRSEDTAVYYCARDSIVVPAAIISGYYYYGMDVWGQGTTVTVSS
VL: QSVLTQPPSVSAAPGQKVTISCSGSSSNIGNNYVSWYQQLPGTAPKLLIYDNNKRPSGIPDRFSGSKSGTSATLGITGLQTGDEADYYCGTWDSSLSAGRVFGGGTKLTVL
B6: antibody 458 (antibody, V domains shown)
VH: QVQLVESGGGVVQPGRSLRLSCAASEFTFATYAMHWVRQAPGKGLEWVALISQDGSNKHYADSVKGRFTISRDNSKNTLYLQMNSLRAEGTAIYYCARESLEAAGPPFDYWGQGTLVTVSS
VL: SYELTQPPSVSVSPGQTATIICSGDKLGEKYASWYQQKPGQSPALVIYQDRKRPSGIPERFSGSNSGNTATLTISGTQAMDEADYYCQAWDSSNSVVFGGGTKLTVP
B7: antibody 453 (antibody, V domains shown)
VH: QVQLVESGGGVVQPGRSLRLSCAASGFTFSSYAMYWVRQAPGKGLEWVAVISYDGSNKYYADSVKGRFTISRDNSKNTLYLQMNSLRAEDTAVYYCARDRPHYYGSGRKILNLYGMDVWGQGTTVTVSS
VL: DIQLTQSPSFLSASVGDRVTITCRASQGISSYLAWYQQKPGKAPKLLIYAASTLQSGVPSSFSGSGSGTEFTLTISSLQPEDFATYYCQQLNSYPPFTFGPGTKVDIK
B8: antibody 448 (antibody, V domains shown)
VH: QVQLVQSGAEVKKPGASVKVSCKASGYTFTSYGISWVRQAPGQGLEWMGWISAYNGNTNYAQKLQGRVTMTTDTSTSTAYMELRSLRSDDTAVYYCAIELLEGFYYYYGMDVWGQGTTVTVSS
VL: SYELTQPPSVSVSPGQTARITCSGDALPKQYAYWYQQKPGQAPVLVIYKDSERPSGIPERFSGSSSGTTVTLTISGVQAEDEADYYCQSADSSGTYPYVVFGGGTKLTVL
B9: antibody 465 (antibody, V domains shown)
VH: QITLKESGPTLVKPTQTLTLTCTFSGFSLSTSGVGVGWIRQPPGKALEWLALIYWDDDKHYSPSLKSRLTITKDTSKNQVVLTMTNMDPVDTATYYCAHMYYDILSGYYYGMDVWGQGTTVTVSS
VL: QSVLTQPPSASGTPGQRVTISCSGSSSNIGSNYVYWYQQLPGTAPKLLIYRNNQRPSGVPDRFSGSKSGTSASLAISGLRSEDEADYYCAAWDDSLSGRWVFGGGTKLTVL
B10: antibody 489 (antibody, V domains shown)
VH: QVQLVESGGGVVQPGRSLRLSCAASGFTFSSYAMHWVRQAPGKGLEWVAVISYDGSNKYYADSVKGRFTISRDNSKNTLYLQMNSLRAEDTAVYYCARAGSGNYYNWFDPWGQGTLVTVSS
VL: not shown
B11: antibody 451 (antibody, V domains shown)
VH: EVQLVESGGGLVQPGGSLRLSCAASGFTFSTYWMSWVRQAPGKGLEWVANIKQDGSEKYYVDSVKGRFTISRDNAKNSLYLQMNSLRAEDTAVYYCARLGGSSWYFDYWGQGTLVTVSS
VL: not shown
B12: antibody 449 (antibody, V domains shown)
VH: not shown
VL: QSALTQPASVSGSPGQSITISCTGTSSDVGGYNYVSWYQQHPGKAPKLMIYEVSNRPSGVSNRFSGSKSGNTASLTISGLQAEDEADYYCSSYTSSSTVVFGGGTKLTVL
B13: antibody 481 (antibody, V domains shown)
VH: EVQLVESGGGLIQPGGSLRLSCAASGFTVSSNYMSWVRQAPGKGLEWVSVIYSGGSTFYADSVKGRFTISRDNSKNTLYLQMNSLRAEDTAVYYCAREVAGTYDYWGQGTLVTVSS
VL: DIQMTQSPSSVSASVGDRVTITCRASQGISSWLAWYQQKPGKAPKLLIYAASSLQSGVPSRFSGSGSGTDFTLTISSLQPEDFATYYCQQANSFPGGTFGPGTKVDIKR
B14: antibody 469 (antibody, V domains shown)
VH: QVQLVESGGGVVQPGRSLRLSCAASGFTFSSYGMHWVRQAPGKGLEWVAVIWYDGSNKYYADSVKGRFTISRDNSKNTLYLQMNSLRAEDTAVYYCARDLLSVGWSFDYWGQGTLVTVSS
VL: not shown
B15: antibody 461 (antibody, V domains shown)
VH: EVQLVESGGGLVKPGGSLRLSCAASGFTFSSYSMNWVRQAPGKGLEWVSSISSSSSYIYYADSVKGRFTISRDNAKNSLYLQMNSLRAEDTAVYYCASNPAAGQEAYYYYGMDVWGQGTTVTVSS
VL: not shown
B16: antibody 515 (antibody, V domains shown)
VH: EVQLVESGGGLVKPGGSLRLSCAASGFTFSSYSMNWVRQAPGKGLEWVSSISSSSSYIYYADSVKGRFTISRDNAKNSLYLQMNSLRAEDTAVYYCASIAAAGTLYYYYGMDVWGQGTTVTVSS
VL: not shown
B17: antibody 500 (antibody, V domains shown)
VH: QVQLVESGGGVVQPGRSLRLSCAASGFTFSSYAMHWVRQAPGKGLEWVAVISYDGSNKYYADSVKGRFTISRDNSKNTLYLQMNSLRAEDTAVYYCAKSRDGYKLFDIWGQGTMVTVSS
VL: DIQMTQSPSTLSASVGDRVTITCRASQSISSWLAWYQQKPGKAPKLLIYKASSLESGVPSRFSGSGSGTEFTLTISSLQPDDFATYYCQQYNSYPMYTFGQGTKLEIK
notes: also called mAb 500
B18: antibody 520 (antibody, V domains shown)
VH: QVQLVESGGGVVQPGRSLRLSCAASGFTFSSYAMHWGRQAPGKGLEWVAVISYDGSNKYYADSVKGRFTISRDNSKNTLYLQMNSLRAEDTAVYYCARDGGSGWLLVGNWFDPWGQGTLVTVSS
VL: QSALTQPASVSGSPGQSITISCTGTSSDVGGYNYVSWYQQHPGKAPKLMIYDVSNRPSGVSNRFSGSKSGNTASLTISGLQAEDEADYYCSSYTSSITLYVFGTGTKVTVL
notes: also called mAb 520
B19: antibody 513 (antibody, V domains shown)
VH: QVQLVESGGGVVQPGRSLRLSCAASGFTFSSYAMHWVRQAPGKGLEWVAVISYDGSNKYYADSVKGRFTISRDNSKNTLYLQMNSLRAEDTAVYYCARAGSGSYYNWFDPWGQGTLVTVSS
VL: QSALTQPASVSGSPGQSITISCTGTSSDVGGYNYVSWYQQHPGKAPKLMIYEVSNRPSGVSNRFSGSKSGNTASLTISGLQAEDEADYYCSSYTSSSTPYVFGTGTKVTVL
B20: antibody 518 (antibody, V domains shown)
VH: QVQLVESGGGVVQPGRSLRLSCAASGFTFSSYAMHWVRQAPGKGLEWVAVISYDGSNKYYADSVKGRFTISRDNSKNTLYLQMNSLRAEDTAVYYCAKPYSGSYWDAFDIWGQGTMVTVSS
VL: not shown
B21: antibody 501 (antibody, V domains shown)
VH: QVQLVQSGAEVKKPGASVKVSCKASGYTFTSYYVHWVRQAPGQSLEWMGVISPSTGSTTYAQNFQGRVTMTRDTSTTTVYMELSSLRSEDTAVYYCARDDYYDSTRYFDLWGRGTLVTVSS
VL: QSALTQPASVSGSPGQSISFSCTGTSSDIGAYNYVSWYQQHPGRAPKLMIYDVGNRPSGVSNRFSGSKSGNTASLTISGLQAEDEADYYCSSYTSSSTQVFGTGTKVTVL
B22: antibody 506 (antibody, V domains shown)
VH: QITLKESGPTLVKPTQTLTLTCTFSGFSLSTSGVGVGWIRQPPGKALEWLALIYWDDDKRYSPSLKSRLTITKDTSKNQVVLTMTNMDPVDTATYYCAHHSLSSIFDYWGQGTLVTVSS
VL: QSALTQPASVSGSPGQSITISCTGTSSDVGDYNYVSWYQQHPGKAPKLMIYEVSNRPSGVSNRFSGSKSGNTASLTISGLQAEDEADYYCSSYTSSSTVFGGGTKLTVLG
B23: antibody 502 (antibody, V domains shown)
VH: QVQLVQSGAEVKKPGASVKVSCKASGYTFTSYYMHWVRQAPGQGLEWMGIINPSGGSTSYAQKFQGRVTMTRDTATSTVYMELSSLRSEDTAVYYCARGGGQISMIIVVMDDAFDIWGQGTMVTVSS
VL: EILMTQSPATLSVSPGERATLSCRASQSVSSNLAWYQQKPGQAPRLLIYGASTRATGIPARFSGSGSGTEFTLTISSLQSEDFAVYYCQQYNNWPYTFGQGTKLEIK

These binders were tested against SARS-CoV-2 spike protein (SARS-CoV-2, UniProt P0DTC2 14-1208) (assay: not given).
With B1 the Kd was 7.93 nM, the koff was 0.000291 s⁻¹ and the kon was 36700 M⁻¹ s⁻¹. B2 was tested, and the Kd was 0.463 nM, the koff was 3.67e-05 s⁻¹ and the kon was 79200 M⁻¹ s⁻¹. With B3 the Kd was 3.46 nM, the koff was 0.000318 s⁻¹ and the kon was 91900 M⁻¹ s⁻¹. B4 showed a Kd of 9.31 nM, a koff of 0.00117 s⁻¹ and a kon of 125000 M⁻¹ s⁻¹. B5 gave a Kd of 0.866 nM, a koff of 9.23e-05 s⁻¹ and a kon of 107000 M⁻¹ s⁻¹. With B6 the Kd was 0.334 nM, the koff was 8.87e-05 s⁻¹ and the kon was 266000 M⁻¹ s⁻¹. In the case of B7, the Kd is reported as 1.61 nM, the koff is reported as 0.000154 s⁻¹ and the kon is reported as 95600 M⁻¹ s⁻¹. B8 gave a Kd of 37.5 nM, a koff of 0.000692 s⁻¹ and a kon of 18500 M⁻¹ s⁻¹. For B9, the Kd was 6.97 nM, the koff was 6.06e-05 s⁻¹ and the kon was 8700 M⁻¹ s⁻¹. B10 showed a Kd of 0.317 nM, a koff of 4.85e-05 s⁻¹ and a kon of 153000 M⁻¹ s⁻¹. Binder B11 has a Kd of 0.429 nM, a koff of 6.02e-05 s⁻¹ and a kon of 140000 M⁻¹ s⁻¹. For B12, the Kd was 9.17 nM, the koff was 0.000526 s⁻¹ and the kon was 57400 M⁻¹ s⁻¹. B13 was tested, and the Kd was 0.273 nM, the koff was 2.96e-05 s⁻¹ and the kon was 109000 M⁻¹ s⁻¹. B14 was tested, and the Kd was 0.133 nM, the koff was 8.39e-05 s⁻¹ and the kon was 630000 M⁻¹ s⁻¹. Binder B15 has a Kd of 3.92 nM, a koff of 0.000377 s⁻¹ and a kon of 96300 M⁻¹ s⁻¹.

The binders below were run against T1, SARS-CoV-2 spike protein (SARS-CoV-2, UniProt P0DTC2 14-1208) (assay: HT-SPR, Carterra LSA; mAb coupled to chip, antigen injected; 1:1 fit).
T1 construct: also called SARS-CoV-2 S protein; antigen of interest
Work on B16 yielded a Kd of 44.2 nM, a koff of 0.00134 s⁻¹ and a kon of 30200 M⁻¹ s⁻¹. Binder B17 has a Kd of 0.43 nM, a koff of 0.000114 s⁻¹ and a kon of 266000 M⁻¹ s⁻¹. Work on B18 yielded a Kd of no more than 0.229 nM, a koff of no more than 1e-05 s⁻¹ and a kon of 43600 M⁻¹ s⁻¹. B19 showed a Kd of 0.0996 nM, a koff of 2.62e-05 s⁻¹ and a kon of 263000 M⁻¹ s⁻¹. B20 showed a Kd of 0.0685 nM, a koff of 2.75e-05 s⁻¹ and a kon of 401000 M⁻¹ s⁻¹. Binder B21 has a Kd of 8.78 nM, a koff of 0.000261 s⁻¹ and a kon of 29800 M⁻¹ s⁻¹. In the case of B22, the Kd is reported as 0.523 nM, the koff is reported as 0.00021 s⁻¹ and the kon is reported as 401000 M⁻¹ s⁻¹. B23 gave a Kd of 2.49 nM, a koff of 0.000269 s⁻¹ and a kon of 108000 M⁻¹ s⁻¹.
